Reference: the nanobody polyreactivity screen of Harvey et al. (2022)

Assay: yeast display, Sf9 membrane polyspecificity reagent, FACS + sequencing; frameworks hold sequencing errors
How it was run: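 After 36–48 hours of galactose induction, yeast (Saccharomyces cerevisiae BJ5465) displaying a synthetic nanobody library were stained at 4 °C for 1 hour with 10% biotinylated, detergent-solubilized Sf9 membrane reagent. Streptavidin microbeads enriched the stained cells before FACS sorting into low and high (top ~1%) gates on anti-HA and streptavidin fluorescence. Each clone's polyreactivity label reflects its gate of origin.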

| Sequence | polyreactivity (PSR sort gate) |
| --- | --- |
| QVQLVESGGGLVQAGGSLRLSCAASGSTFPYYTMGWYRQAPGKERELVAAITWRGGRTYYADSVKGRFTISRDNAKNTVYLQMNSLKPEDTAVYYCAVYRRWYSGLYDYWGQGTQVTVSS | high polyreactivity |
| QVQLVESGGGLVQAGGSLRLSCAASGSTFPYYVMGWYRQAPGKERELVAAIDESGDRTYYADSVKGRFTISRDNAKNTVYLQMNSLKPEDTAVYYCAAEGWYEYWYDYWGQGTQVTVSS | high polyreactivity |
| QVQLVESGGGLVQAGGSLRLSCAASGSTFPYYVMGWYRQAPGKERELVAAISGSGTRTYYADSVKGRFTISRDNAKNTVYLQMNSLKPEDTAVYYCAARKYPQGFDYWGQGTQVTVSS | low polyreactivity |
| QVQLVESGGGLVQAGGSLRLSCAASGSTFPYYVMGWYRQAPGKERELVATITNSGGSTYYADSVKGRFTISRDNAKNTVYLQMNSLKPEDTAVYYCAAVYWYGLYHRYYYWGQGTQVTVSS | low polyreactivity |
| QVQLVESGGGLVQAGGSLRLSCAASGSTFQFNTMGWYRQAPGKERELDAAITYSGGSTYYADSVKGRFTISRDNAKNTVYLQMNSQKPEDTAVYYCAADIITYDYPSYDGYIRYPYYYWGQGTQVTVTS | low polyreactivity |
| QVQLVESGGGLVQAGGSLRLSCAASGSTFQFNVMGWYRQAPGKERELVAAITSGASTYYADSVKGRFTISRDNAKNTVYLQMNSLEPVDTAVYYWAVDYSFRYDYVQRYYYWGQGTQVTVSS | high polyreactivity |
| QVQLVESGGGLVQAGGSLRLSCAASGSTFQFYAMGWYRQAPGKEREFVAGIRSSGGTYYADSVKGRFTISRDNAKNTVYLQMNSLKPEDTAVYYCAAVSSYSPYRRTYYYWGQGTQVTVSS | high polyreactivity |
| QVQLVESGGGLVQAGGSLRLSCAASGSTFQFYAMGWYRQAPGKERELVAAIDGSDGDTYYADSVKGRFTISRDNAKNTVYLQMNSLKPEDTAVYYCNADRDALVGYDYDYWGQGTQVTVSS | low polyreactivity |
| QVQLVESGGGLVQAGGSLRLSCAASGSTFQGNAMGWYRHAPGKERELVAAISRSGGSTYADSVKGRFTISRDNAKNTVYLQINSLKPEDTAVYYCAAYSGVGYLWFDYWGQGTQVTVSS | low polyreactivity |
| QVQLVESGGGLVQAGGSLRLSCAASGSTFQGNAMGWYRQAPGKERELVAAISRSGGSTYADSVKGRFTMSRDNAKNTVYLQMNSLKPEDTAVYYCAAYSGVGYLWFDYWGQGTQVTVSS | low polyreactivity |
| QVQLVESGGGLVQAGGSLRLSCAASGSTFQGYALRWYRQAPGKERELVAAITKRSGRTYYADSVKGRFTISRDNAKNTVYLQMNSLKPEDTAVYYCAKVTSYSEYDYWGQGTQVTVSS | high polyreactivity |
| QVQLVESGGGLVQAGGSLRLSCAASGSTFQINAMGWYRQAPGKERELVARNSGSGSRTYYADSVKGRFTISRYNAKNTVSLQMNSLKPEDTAVYYCAARGTGKGYDSWGQGTQVTVSS | high polyreactivity |
| QVQLVESGGGLVQAGGSLRLSCAASGSTFQIYAMGWYRQAPGKETELVAAITSSSSTNYADSVKGRFTISRDNAKNTVYLQMNSLKPEDTAVYYCAADVSWRSNWYDYWGQGTQGTVSS | low polyreactivity |
| QVQLVESGGGLVQAGGSLRLSCAASGSTFQKNVMGWYRQAPGKERELVAAITSVGSTNYADSVKGRFTISRDNAKNTVYLQMNSLKPEDTAVYYCAKDQVPYYYVFGVYDYDYWGQGTQVTVSS | low polyreactivity |
| QVQLVESGGGLVQAGGSLRLSCAASGSTFQLYAMGWDRQAPGKERELVAAITSSAGRTYYADSVKGRFTISRDNAKNTVYLQMNSLKPEDTAVYYCAKDGSFTFWGQGTQVTVSS | low polyreactivity |
| QVQLVESGGGLVQAGGSLRLSCAASGSTFQNNPMGSYRQAPGKERELVATISRRGGSTYYADSVKGRFTISRDNAKNTVYLQMNRLKPEDTAVYYCAAQAPNYAHRYYYWGQGTQVTVSS | high polyreactivity |
| QVQLVESGGGLVQAGGSLRLSCAASGSTFQQYGMGWYRQAPGKERELVAAITFSDGNTYYADSVKGRFTISRDNAKNTVYLQMNSLKREDTAVYYCNAGYSYGVSYAEGGYWGQGTQVTVSS | low polyreactivity |
| QVQLVESGGGLVQAGGSLRLSCAASGSTFQRNAMGWYRQAPGKERELVAVITRRGASTYYADSVKGRFTISRDNAKNTVYLQMKSLKPEDTAVYYCNKVPYGRDHHLLFDYWGQGTQVTVSS | high polyreactivity |
| QVQLVESGGGLVQAGGSLRLSCAASGSTFQRYAMGWSRQAPGKERELVAAIDTVGSTNYADSVKGRFTISRDNAKNTVYLQMNSLKPEDTAVYYCAVVTPYWSFYEQVIPSNYWGQGTQVTVSS | low polyreactivity |
| QVQLVESGGGLVQAGGSLRLSCAASGSTFQSNAMGWYRQAPGKERELVAAITVSAGSTYYADSVKGRFTISRDNAKNTVYLQMNSLKPEDTAVYFCAANRYVYPSYRFDYWGQGTQVTVSS | low polyreactivity |
| QVQLVESGGGLVQAGGSLRLSCAASGSTFQSYAMGWYRPAPGKERELVATITWSSGRTYYADSVKGRFTISRDNAKNTVYLQMKSLKPEDTAVYYCAARKRPFYKYDYWGQGTQVTVSS | high polyreactivity |
